From the DeepSol protein solubility set

Assay: soluble on expression in E. coli; label from the status in PepcDB or PDB records

Sequence | soluble on expression in E. coli
MGSDKIHHHHHHMLHNTNQPQISRQMNELEAQCGGRLFNRTGRGVELTDLGQHLLPKIRSWLNVTDQLNNEILHSTDTPIGTVRIASLPSTAHPLLSTLYKVLQEKYPLIKLSVREGQGVHLEKWLEDGSVDLAILYRFNPTPKQGDIYLTQADTYLVGCEGDALTQASEVDFKAINQLPLVTFCRPSNWRNFLDHMAYENGVELNIVFEADSISLQTHLVSESRMYTMLGPQALKKASQYTSIQAAKIINPALKRYISLSISKHGYLTPACKAVMEEIRNLADLL | not soluble
MAILQIGAGGVGWVVAHKAAQNNDVLGDITIASRTVGKCEKIIESIQKKNNLKDSTKKLEARAVNADDVDSLVALIEEVKPDLVINAGPPWVNMPIMEACYRAKVSYLDTSVAVDLCSEGQQVPEAYDWQWGYREKFEE | not soluble
MSLILRWGIIGPGWIAERFVHSLKTYSRQQVVAVASRSQAKADRVAAEWGIPQAYGQVEEMLARPDIDAVYIATPHNHHFPDGMQALKAGKHVLIEKPFALNLGEGRELQAEAARQEKLALEAMWCDYAPKYDVIRQLLEDGALGDLHTLLADHGEYFTRDHRIFNADLAGGPMMDLGSYVTSFALMVGGMPQEIVARGSATAEGLNGQTSMLFSWQNGMQGLLNTTLFSNTPGGAVVAGRQATLTIDGQFYAPGGFTLAASQGGQVLRWEEPRNRYDQLFWQAEHFAWCIGQGLQDSPLRPLSRVLQNLQVMDEVRRQVGAVFNEEREGHHHHHH | not soluble
MEYSYIPSAALYNNADIFQFFPRNKRLNSHQKSRLDEHARKMAAFMMERQEEYRYYENLANQEQFSDDNGMESGFCSGATSTGQSASTSPAPVQLIPNPFFDPEYVAAKTQSPVKLVTNPFFNPELVEEIKKKSQKRNEKSAPVSA | not soluble
MGHHHHHHHHSSGHIEGRHMAHLLIVNVASHGLILPTLTVVTELVRRGHRVSYVTAGGFAEPVRAAGATVVPYQSEIIDADAAEVFGSDDLGVRPHLMYLRENVSVLRATAEALDGDVPDLVLYDDFPFIAGQLLAARWRRPAVRLSAAFASNEHYSFSQDMVTLAGTIDPLDLPVFRDTLRDLLAEHGLSRSVVDCWNHVEQLNLVFVPKAFQIAGDTFDDRFVFVGPCFDDRRFLGEWTRPADDLPVVLVSLGTTFNDRPGFFRDCARAFDGQPWHVVMTLGGQVDPAALGDLPPNVEAHRWVPHVKVLEQATVCVTHGGMGTLMEALYWGRPLVVVPQSFDVQPMARRVDQLGLGAVLPGEKADGDTLLAAVGAVAADPALLARVEAMRGHVRRAGGAARAADAVEAYLARAR | soluble
MPQEKMARLYNLNYTIASQVNPHVVPFMQSDASRYRKDILSWPQRILRRQGKVISLGIMDFTRERLGNVPPVRRLLDHGYGIVGQRYYGDVNIIAPFNLRQYAYMLQNPRPHLFKLLQQQGERATWPKISAIETHARIGKTIQHCIEVLDYQKNRYIQAEKASALEHHHHHH | not soluble
GSHMASMTGGQQMGRGSGSHMASMTGGQQMGRGSRVGEQSQAGDPGLVSAYGPGLEGGTTGVSSEFIVNTLNAGSGALSVTIDGPSKVQLDCRECPEGHVVTYTPMAPGNYLIAIKYGGPQHIVGSPFKAKVTGPRLS | soluble
MKIVIAPDSFKESLSADKCCQAIKAGFSTVFPDARYVCLPIADGGEGTVDAMVAATGGKRVSVDVSGPMGEKVNGFYGLTGDGKTAIIEMAAASGLMLVAPEARNPLLASSFGTGELIRHALDAGIRHIILGIGGSATVDGGMGVAQALGVRFLDAQGTPLGAGGGNLSRLASIDLQGCDPRISECRIEVACDVDNPLVGPRGAAAVFGPQKGATPEMVETLENGLRNYARVLHALTGRDMSQIPGGGAAGGMGIAAIVFLEAEMKPGIEIVMQAVKLEEAVKEASLVITGEGRIDSQTAGGKAPIGVASVAKRHHVPVIGIAGVLGDGVEVVHRHGIDAVFSILPRLAPLPEVLANGEQNLYHSACNIARVIKLGQDIGTR | not soluble
MKAAVVEQFKEPLKIKEVEKPTISYGEVLVRIKACGVCHTDLHAAHGDWPVKPKLPLIPGHEGVGIVEEVGPGVTHLKVGDRVGIPWLYSACGHCDYCLSGQETLCEHQKNAGYSVDGGYAEYCRAAADYVVKIPDNLSFEEAAPIFCAGVTTYKALKVTGAKPGEWVAIYGIGGLGHVAVQYAKAMGLNVVAVDIGDEKLELAKELGADLVVNPLKEDAAKFMKEKVGGVHAAVVTAVSKPAFQSAYNSIRRGGACVLVGLPPEEMPIPIFDTVLNGIKIIGSIVGTRKDLQEALQFAAEGKVKTIIEVQPLEKINEVFDRMLKGQINGRVVLTLEDK | soluble
MVHWADYIADKIIRERGEKEKYVVESGITPSGYVHVGNFRELFTAYIVGHALRDKGYEVRHIHMWDDYDRFRKVPRNVPQEWKDYLGMPISEVPDPWGCHESYAEHFMRKFEEEVEKLGIEVDLLYASELYKRGEYSEEIRLAFEKRDKIMEILNKYREIAKQPPLPENWWPAMVYCPEHRREAEIIEWDGGWKVKYKCPEGHEGWVDIRSGNVKLRWRVDWPMRWSHFGVDFEPAGKDHLVAGSSYDTGKEIIKEVYGKEAPLSLMYEFVGIKGQKGKMSGSKGNVILLSDLYEVLEPGLVRFIYARHRPNKEIKIDLGLGILNLYDEFEKVERIYFGVEGGKGDDEELRRTYELSMPKKPERLVAQAPFRFLAVLVQLPHLTEEDIINVLIKQGHIPRDLSKEDVERVKLRINLARNWVKKYAPEDVKFSILEKPPEVEVSEDVREAMNEVAEWLENHEEFSVEEFNNILFEVAKRRGISSREWFSTLYRLFIGKERGPRLASFLASLDRSFVIKRLRLEG | soluble
IQRSIERALDFRKEVQRLREESDGWFFDIWQPEAVDKAECWPVAPGEDWHGFKDADADHMYLDPVKVTILTPGMDEQGNMDEEGIPAALVAKFLDERGVVVEKTGPYNLLFLFSIGIDKTRAMGLLRGLTEFKRAYDLNLRVKNMLPDLYAEDPDFYRNMRIQDLAQGIH | not soluble
MGSDKIHHHHHHMIEIIPAIDIIDGKCVRLSQGDYDSKKVYNENPVEVAKEFEANGVRRLHVVDLDGAASHHVVNHRVLEQIATRTSLIVDFGGGVKSDEDLKIAFESGAQMVTGGSVAVKDPELFCHWLEVYGSEKIILGADVKEHKIAVNGWKDESACELFPFLEDYINKGIQKVICTDISCDGMLKGPSIDLYKEMLEKFPNLYLMASGGVSNVDDIIALNEAGVPGVIFGKALYEGHITLKDLRIFL | not soluble
MTTASTSQVRQNYDQDSEAAINRQINLELYASYVYLSMSYYFDRDDVALKNFAKYFLHQSHEERCHAEKLMKLQNQRGGRIFLQDIQKPDRDDWESGLNAMEAALQLEKNVNQSLLELHKLATDKNDPHLSDFIETHYLNCQVCAIKCLGDHVTNLRKMGAPESGLAEYLFDKHTLGDSDNES | soluble
MAHHHHHHMDRLAGSFLSNGDVANASSLYNSLEKLNPTRYSRMARICRVLLNPQGVPLPHRHLDICEALLDPLVPPEVLLRDSAENVQKSFQRLAVCAHPDKNPSPSANEAFLRLTMMKDKALELLRNGVGRKCDGATEAPPGKAADSNGGKGKPKMQGSGPAVPTVAHRRRPLRPGVPLPAAATAVTSDINTAAAVSSKISQLRRTKITLNALKRKDIADDFEIFSATQRTTAVQSEVSHSDVGEDHLATTVPVMSTKERARCANRRRSQSSAPQEKTTTVPRASSPNSNPLLSSSLYYAMPVSPHKPLSPSPQTLEDPTGSVKSSGAGDRDASALYSPFIPTAAIPADSDAIRRQIDEACLRLREMRLQHTTVRLDLDLSFEAYERSKQPQ | not soluble
MSAKDFLVELGTEELPPKALNSLGEAFLSGIEKGLKAAGLSYAAARFYAAPRRLAVLVEQLAVQQPDRTVNLDGPPLQAAFDASGNPTQAALGFAKKCGVDLQQIDKSGPKLRFIQTIAGQPAAGLLPGIVEASLNELPIPKRMRWAARREEFVRPTQWLVMLFGDDVVECEILAQKAGRESRGHRFHNPDNVRISSPAAYLEDLRGAHVLADFAERRELIAKRVAELAAEQQGSAIVPPSLLDEVTALVEWPVPLVCSFEERFLEVPQEALITTMQDNQKYFCLLDANGKLLPRFITVANVESKAPENIVSGNEKVVRPRLTDAEFFFKQDKKQPLESFNERLRNVVFQAQLGTVFEKAQRVSGLAAYIAERIGGNAQNASRAGILSKCDLATEMVGEFPEMQGIAGYYYATHGGEAEDVALALNEQYMPRGAGAELPSTLTGAAVAVADKLDTLVGIFGIGMLPTGSKDPYALRRAALGVLRILIEKQLDLDLVAAVNAAVEQYGDKVKAAGLAEQVLDFVFDRLRARYEDEGVDVAVYQSVRALKPSSPLDFDQRVQAVQAFRQLPEAEALAAANKRVSNILAKSEDEVPPNVDASLLVEAAEKALGSAVANAESEVAPLAAARDYRAALARLAALREPVDTFFADVMVNVDDAAVRANRYALLAKLRGSFLGVADIS | not soluble
MAAMPKPAAFWNDRFANEEYVYGEAPNRFVASAARTWLPEAGEVLLLGAGEGRNAVHLAREGHTVTAVDYAVEGLRKTERLATEAGVEVEAIQADVREWKPARAWDAVVVTFLHLPADERPGLYRLVQRCLRPGGRLVAEWFRPEQRTDGYTSGGPPDPAMMVTADELRGHFAEAGIDHLEAAEPTLDEGMHRGPAATVRLVWCRPSTSLEHHHHHH | soluble
MCMSVFKRLRDLTMSNVYSLIEKAEDPVKMTDQYLRDMQADVQEAEKSVAAQIALEKKFKILFEEQEALVKKREEQAHMAVQASNLDLARRALEEKQNAEQKMNEYKASYEQNKAAADNLRLKLEEMRKQLTELKNKRETLVARVNAAKAQKNINQAMSGFDSNSAKAGLSRMEEKALQLEAEAEASGEVYKKEKSLDDEFASLNKNSAVDDELARIMKQYEKMAGDPLEHHHHHH | not soluble
MATKEFYFAIIGHCDQPIFEMDFPVGEKKTKESEGTRHLNHYIGHAALDIVDEHALTTSQMYLKMVDKFNEWYVSAFVTASRIRFIMLHTHRADEGIKQFFQEMYETYIKHAMNPFYEIDDVIESPAFEQKATLYGRKYLS | not soluble
MSNVYVMALDFGNGFVKGKINDEKFVIPSRIGRKTNENNQLKGFVDNKLDVSEFIINGNNDEVLLFGNDLDKTTNTGKDTASTNDRYDIKSFKDLVECSIGLLAREVPEEVVNVVIATGMPSNEIGTDKQAKFEKLLNKSRLIEIDGIAKTINVKGVKIVAQPMGTLLDLNMENGKVFKAFTEGKYSVLDFGSGTTIIDTYQNMKRVEEESFVINKGTIDFYKRIASHVSKKSEGASITPRMIEKGLEYKQCKLNQKTVIDFKDEFYKEQDSLIEEVMSNFEITVGNINSIDRIIVTGGGANIHFDSLSHYYSDVFEKADDSQFSNVRGYEKLGELLKNKVEQESKRGSHHHHHH | soluble
MQGKNTIVTTGDYSIGLLSQTSGNLNTDTIIRVNSDGSVTPSFSDGDDTFIVTAGNHAVGVLACASPGSACACVSSLDEESTADTGSNENNAIAKLDMAKGEITTHGTESYAAYANGTVVKAGDTLDYTNASVTLTDVDITTHGDNAHAIAARQGTVSFNQGEIYTTGPDAAIAKIYNGGTVTLKNTSAVAHQGSGIVLESSINGQEATVDILSGSSLRSANEILYHKDETSNVTITDSEVSSAADVFINNIKGHLTVDATNSKITGSANISTDDNTHTYLSLSDNSTWDIKADSTVSNLTVDNSTVYISRADGRDVEPTRLTITENYVGNNGVLHLRTELDDDNSATDKVVINGNTSGTTRVKVTNAGGSGAYTLNGIEIISVEGESNGEFIKDSRIFAGAYEYSLTRGNTEATNKNWYLTNFQATSGGETNSGGSSAPTVAPTPVLRPEAGSYVANLAAANTLFVMRLNDRAGETRYIDPVTEQERSSRLWLRQIGGHNAWRDSNGQLRTTSHRYVSQLGGDLLTGGFTDSDSWRLGVMAGYARDYNLTHSSVSDYRSKGSVRGYSAGLYATWFADDISKKGAYIDSWAQYSWFKNSVKGDELAYESYSAKGATVSLEAGYGFALNKSFGLEAAKYTWIFQPQAQAIWMGVDHNAHTEANGSRIENDANNNIQTRLGFRTFIRTQEKNSGPHGDDFEPFVEMNWIHNSKDFAVSMNGVKVEQDGVSNLGEIKLGVNGNLNPAASVWGNVGVQLGDNGYNDTAVMVGLKYKF | not soluble
